Reference: patent publication US20240109974A1 (SHANDONG SIMCERE BIOPHARMACEUTICAL, published 2024)

T1: human TNFR2 on the surface of CHO-TNFR2 cells (human, UniProt P20333 23-461)
T1 construct: whole, on cells
T1 sequence (looked up): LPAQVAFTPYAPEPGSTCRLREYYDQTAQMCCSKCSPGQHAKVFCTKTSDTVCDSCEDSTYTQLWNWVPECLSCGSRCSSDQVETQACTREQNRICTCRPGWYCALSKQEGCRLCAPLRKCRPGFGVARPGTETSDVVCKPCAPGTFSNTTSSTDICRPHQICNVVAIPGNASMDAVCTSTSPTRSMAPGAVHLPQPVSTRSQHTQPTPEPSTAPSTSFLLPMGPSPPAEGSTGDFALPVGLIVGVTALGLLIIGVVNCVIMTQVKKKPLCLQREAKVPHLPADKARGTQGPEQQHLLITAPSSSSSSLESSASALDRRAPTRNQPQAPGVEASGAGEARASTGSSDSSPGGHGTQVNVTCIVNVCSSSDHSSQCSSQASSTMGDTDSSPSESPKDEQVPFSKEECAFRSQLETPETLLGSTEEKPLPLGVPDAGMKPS

T2: human TNFR2 (Novoprotein, Cat #C830) (human, UniProt P20333 23-257, limits assumed)
T2 construct: construct not described; also called human TNFR2 protein
T2 sequence (looked up): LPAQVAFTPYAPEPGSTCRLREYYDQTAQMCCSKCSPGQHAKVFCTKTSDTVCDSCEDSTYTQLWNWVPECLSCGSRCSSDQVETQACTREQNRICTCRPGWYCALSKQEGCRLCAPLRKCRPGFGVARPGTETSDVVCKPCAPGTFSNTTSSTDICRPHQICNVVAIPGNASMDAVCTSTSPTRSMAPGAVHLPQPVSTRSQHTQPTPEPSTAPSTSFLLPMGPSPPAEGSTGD

T3: Human TNFR2-His (Sino 10417-H08H) (human, UniProt P20333 23-257)
T3 construct: Bought protein; also called recombinant human TNFR2 protein; not shown: His tag
T3 sequence (looked up): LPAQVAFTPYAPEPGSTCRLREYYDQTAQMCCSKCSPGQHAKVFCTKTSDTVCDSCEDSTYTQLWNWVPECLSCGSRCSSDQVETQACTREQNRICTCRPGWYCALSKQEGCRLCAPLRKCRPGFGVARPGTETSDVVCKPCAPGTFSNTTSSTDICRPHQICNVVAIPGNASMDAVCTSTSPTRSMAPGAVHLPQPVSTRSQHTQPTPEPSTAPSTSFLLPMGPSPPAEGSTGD


Tests used:
[1] = biological target: T1, human TNFR2 on the surface of CHO-TNFR2 …; assay: competition flow cytometry on CHO-TNFR2 cells, competitor TNFα-biotin; IC50 against 001-WT
Protocol: (§1) CHO stable cells highly expressing human TNFR2 were used for the experiment (the same as CHO-TNFR2 in Example 4). The CHO-TNFR2 cells were digested, washed twice with DPBS, then stained with Live/Dead (L/D) (20 minutes at room temperature), and plated at a density of 1×10⁵ cells/50 μl/well. A test anti-TNFR2 antibody was diluted to 6 μg/ml with a staining buffer as the starting concentration: the antibody was subjected to 3.33-fold gradient dilution, with a total of 7 concentration points. The diluted antibody was added to the plated cells at 50 μl/well, and the mixture was mixed well by gentle pipetting, and incubated at 4° C. for 30 minutes. Then the diluted 100 ng/ml of human TNFα-biotin was added at 100 μl/well, and the mixture was mixed well by gentle pipetting, and then incubated at 4° C. for 30 minutes. The mixture was washed twice with a staining buffer, and then 0.12 μg/ml PE-streptavidin (BioLegend, Cat #405204) was added at 100 μl/well; the resulting mixture was incubated at 4° C. for 30 minutes. The mixture was washed twice with a staining buffer, and then 150 μl of staining buffer was added to resuspend the cells; signals were detected by a flow cytometer (Thermo Attune NxT). The inhibitory curve of an antibody was drawn with antibody concentration as the abscissa and corresponding MFI value as the ordinate, and fitted with four parameters (GraphPad Prism9) to calculate the IC50 value. The smaller the IC50 value, the stronger the ability of an antibody to inhibit the binding of human TNFα to human TNFR2. The blocking effect of a humanized antibody was normalized to its corresponding human-murine chimeric WT antibody. The higher the percentage value, the better the inhibitory effect of the humanized antibody.

[2] = biological target: T2, human TNFR2 (Novoprotein, Cat #C830); assay: competition ELISA, competitor human TNFα-Biotin; AUC against 001-WT
Protocol: 1 μg/ml human TNFR2 (Novoprotein, Cat #C830) was pre-coated with 100 μl/well […] in an ELISA plate. All the test TNFR2 antibodies were subjected to 2.5-fold gradient dilution from the highest concentration of 30 μg/ml; the diluted antibodies were mixed with 15 ng/ml human TNFα-Biotin (Acro Biosystem, Cat #TNA-H82E3) in equal volume, respectively; the resulting mixture was added to the ELISA plate at 100 μl/well, and incubated with shaking at room temperature for 2.0 hours. The plate was washed, and then a Streptavidin-HRP working solution (diluted at 1:10000) was added at 100 μl/well, and the mixture was incubated with shaking at room temperature for 40 minutes. The plate was washed again, and then the substrate TMB of HRP was added to develop colour. A stop solution was added to stop the reaction, and then a microplate reader (MD 13) was used to read the absorbance value. The inhibitory curve of an antibody was drawn with antibody concentration as the abscissa and corresponding OD value as the ordinate, and fitted with four parameters (GraphPad Prism9) to calculate the IC50 value. The smaller the IC50 value, the stronger the ability of an antibody to inhibit the binding of human TNFα to human TNFR2. The blocking effect of a humanized antibody was normalized to its corresponding human-murine chimeric antibody WT. The higher the percentage value, the better the inhibitory effect of the humanized antibody.

[3] = biological target: T1, human TNFR2 on the surface of CHO-TNFR2 …; assay: competition flow cytometry on CHO-TNFR2 cells, competitor TNFα-biotin; IC50 against 219-WT
Protocol: as §1

[4] = biological target: T3, Human TNFR2-His (Sino 10417-H08H); assay: ELISA, human TNFR2-His coated; EC50 against 219-WT
Protocol: The test humanized antibody against TNFR2 (as described in Example 1, the antibody was comprised of variable regions linked to IgG-Fc; the WT chimeric antibody also adopted the IgG-Fc structure) was subjected to 3.33-fold gradient dilution, loaded with 100 μl/well, and incubated with shaking at room temperature for 1.5 hours. The plate was washed, and then a working solution of murine anti-human IgG Fc-HRP (diluted at 1:10000) was added, loaded with 100 μl/well, and incubated with shaking at room temperature for 1.0 hour. The plate was washed again, and then the substrate TMB of HRP was added to develop colour. A stop solution was added to stop the reaction, and then a microplate reader (MD 13) was used to read the absorbance value. The binding curve of an antibody was drawn with antibody concentration as the abscissa and corresponding OD value as the ordinate, and fitted with four parameters (GraphPad Prism9) to calculate the EC50 value. The smaller the EC50 value, the stronger the binding ability of an antibody to human/cynomolgus monkey TNFR2. The binding effect of a humanized antibody was normalized to its corresponding human-murine chimeric antibody WT (see SEQ ID NOs: 38-43 for the sequence). The higher the percentage value, the better the binding effect of the humanized antibody. The results of binding of an anti-TNFR2 antibody to a human TNFR2 protein are shown in FIG. 1 and Table 4, and the results of binding of an anti-TNFR2 antibody to cynomolgus monkey TNFR2 are shown in FIG. 2 and Table 4.

Row | Binder | % Relative activity (WT antibody/test antibody) [1] | % Relative activity (WT antibody/test antibody) [2] | % Relative activity (WT antibody/test antibody) [3] | % Relative activity (WT antibody/test antibody) [4]
1 | 001-Hu5 (antibody, V domains shown, Humanized form of #001; also called VH1 + VL4) VH: EVQLVESGGGLVQPGGSLRLSCAASGFAFSTYDLSWVRQAPGKGLEWVAYINNGGISTYYSDTVKGRFTISRDNAKNTLYLQMNSLRAEDTAVYYCVRGPFYGSANYFDYWGQGTLVTVSS VL: DIQMTQSPSSLSASVGDRVTITCRTSESIYSNLPWYQQKPGKSPKLLVYDATKLAEGVPSRFSGSGSGTDYTLTISSLQPEDFATYYCQHFWVTPWTFGQGTKVEIK | 86.2% | 98% |  | 
2 | 219-Hu3 (antibody, V domains shown, also called VH5 + VL5) VH: QVQLVQSGAEVKKPGSSVKVSCKASGYSFTNYWMNWVRQAPGQGLEWMGMIHPSDTETRLNQNFKDRVTITADKSTSTAYMELSSLRSEDTAVYYCARGEGLGAARSVSMDYWGQGTLVTVSS VL: DIQMTQSPSSLSASVGDRVTITCRASQDISNYLNWYQQKPDGTVKLLIYYTAILHSGVPSRFSGSGSGTDYSLTISSLQPEDFATYFCQQGNTLPWTFGQGTKVEIK |  |  | 120% | 84.4%
3 | 219-Hu4 (antibody, V domains shown, also called VH6 + VL5) VH: QVQLVQSGAEVKKPGSSVKVSCKASGYSFTNYWMNWVKQAPGQGLEWIGMIHPSDTETRLNQNFKDKATLTVDKSTSTAYMELSSLRSEDTAVYYCARGEGLGAARSVSMDYWGQGTLVTVSS VL: DIQMTQSPSSLSASVGDRVTITCRASQDISNYLNWYQQKPDGTVKLLIYYTAILHSGVPSRFSGSGSGTDYSLTISSLQPEDFATYFCQQGNTLPWTFGQGTKVEIK |  |  | 124% | 99.7%
4 | 219-Hu2 (antibody, V domains shown, also called VH4 + VL5) VH: QVQLVQSGAEVKKPGSSVKVSCKASGYSFTNYWMNWVRQAPGQGLEWMGMIHPSDTETRLNQNFKDKATITADKSTSTAYMELSSLRSEDTAVYYCARGEGLGAARSVSMDYWGQGTLVTVSS VL: DIQMTQSPSSLSASVGDRVTITCRASQDISNYLNWYQQKPDGTVKLLIYYTAILHSGVPSRFSGSGSGTDYSLTISSLQPEDFATYFCQQGNTLPWTFGQGTKVEIK |  |  | 127% | 95.9%

Now from value to binder:

Row | % Relative activity (WT antibody/test antibody) [1] | % Relative activity (WT antibody/test antibody) [2] | % Relative activity (WT antibody/test antibody) [3] | % Relative activity (WT antibody/test antibody) [4] | Binder
5 | 84.3% | 97.1% |  |  | 001-Hu2 (antibody, V domains shown, Humanized form of #001; also called VH2 + VL2) VH: EVQLVESGGGLVQPGGSLRLSCAASGFAFSTYDLSWVRQAPGKGLEWVAYINNGGISTYYSDTVKGRFTISRDNAKNSLYLQMNSLRAEDTAVYYCVRGPFYGSANYFDYWGQGTLVTVSS VL: DIQMTQSPSSLSASVGDRVTITCRTSESIYSNLPWYQQKPGKSPKLLIYDATKLAEGVPSRFSGSGSGTDFTLTISSLQPEDFATYYCQHFWVTPWTFGQGTKVEIK
6 | 92.3% | 101% |  |  | 001-Hu4 (antibody, V domains shown, Humanized form of #001; also called VH2 + VL4) VH: EVQLVESGGGLVQPGGSLRLSCAASGFAFSTYDLSWVRQAPGKGLEWVAYINNGGISTYYSDTVKGRFTISRDNAKNSLYLQMNSLRAEDTAVYYCVRGPFYGSANYFDYWGQGTLVTVSS VL: DIQMTQSPSSLSASVGDRVTITCRTSESIYSNLPWYQQKPGKSPKLLVYDATKLAEGVPSRFSGSGSGTDYTLTISSLQPEDFATYYCQHFWVTPWTFGQGTKVEIK
7 | 98.3% | 98% |  |  | 001-Hu1 (antibody, V domains shown, Humanized form of #001; also called VH1 + VL1) VH: EVQLVESGGGLVQPGGSLRLSCAASGFAFSTYDLSWVRQAPGKGLEWVAYINNGGISTYYSDTVKGRFTISRDNAKNTLYLQMNSLRAEDTAVYYCVRGPFYGSANYFDYWGQGTLVTVSS VL: DIQMTQSPSSLSASVGDRVTITCRTSESIYSNLPWYQQKPGKAPKLLLYDATKLAEGVPSRFSGSGSGTDYTLTISSLQPEDFATYYCQHFWVTPWTFGQGTKVEIK
8 | 100% | 99.4% |  |  | 001-Hu3 (antibody, V domains shown, Humanized form of #001; also called VH1 + VL3) VH: EVQLVESGGGLVQPGGSLRLSCAASGFAFSTYDLSWVRQAPGKGLEWVAYINNGGISTYYSDTVKGRFTISRDNAKNTLYLQMNSLRAEDTAVYYCVRGPFYGSANYFDYWGQGTLVTVSS VL: DIQMTQSPSSLSASVGDRVTITCRTSESIYSNLPWYQQKPGKAPKLLIYDATKLAEGVPSRFSGSGSGTDYTLTISSLQPEDFATYYCQHFWVTPWTFGQGTKVEIK
9 |  |  | 138% | 96.5% | 219-Hu5 (antibody, V domains shown, also called VH7 + VL5) VH: QVQLVQSGAEVKKPGSSVKVSCKASGYSFTNYWMNWVRQAPGQGLEWMGMIHPSDTETRLNQNFKDRVTITVDKSTSTAYMELSSLRSEDTAVYYCARGEGLGAARSVSMDYWGQGTLVTVSS VL: DIQMTQSPSSLSASVGDRVTITCRASQDISNYLNWYQQKPDGTVKLLIYYTAILHSGVPSRFSGSGSGTDYSLTISSLQPEDFATYFCQQGNTLPWTFGQGTKVEIK
10 |  |  | 106% | 83.1% | 219-Hu1 (antibody, V domains shown, also called VH3 + VL5) VH: QVQLVQSGAEVKKPGASVKVSCKASGYSFTNYWMNWVRQAPGQRLEWMGMIHPSDTETRLNQNFKDRVTITRDTSASTAYMELSSLRSEDTAVYYCARGEGLGAARSVSMDYWGQGTLVTVSS VL: DIQMTQSPSSLSASVGDRVTITCRASQDISNYLNWYQQKPDGTVKLLIYYTAILHSGVPSRFSGSGSGTDYSLTISSLQPEDFATYFCQQGNTLPWTFGQGTKVEIK
